The target in this experiment is 3×HA-Creb1 (UniProt Q01147-2 1-327). The experiment in a line: cell-based or functional assay.
Chain of 3×HA-Creb1 (Q01147 whole entry): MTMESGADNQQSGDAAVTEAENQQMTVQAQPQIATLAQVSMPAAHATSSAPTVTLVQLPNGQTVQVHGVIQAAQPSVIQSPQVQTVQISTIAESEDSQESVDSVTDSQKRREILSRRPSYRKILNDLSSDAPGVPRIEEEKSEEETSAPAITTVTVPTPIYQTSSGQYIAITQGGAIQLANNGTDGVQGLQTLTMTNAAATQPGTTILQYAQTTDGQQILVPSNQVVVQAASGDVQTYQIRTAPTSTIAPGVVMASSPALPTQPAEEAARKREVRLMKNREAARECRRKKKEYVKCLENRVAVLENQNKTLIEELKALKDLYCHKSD

B1: 6×Myc-Mef2c (natural protein)
chain: not shown
For the molecule B1, the “transactivation of Reporter II (4×(Mef2#3–CRE#3–E#4) luciferase) by Mef2c and Creb1 together in HEK293T cells; 2.8-fold by Mef2c and 3.7-fold by Creb1 alone” value is 8.3 fold.

For the origin of these results see article PMC8945367, “Transcription Regulation of Tceal7 by the Triple Complex of Mef2c, Creb1 and Myod” (Biology, 2022).
